In patent EP2308896A1 (Sanofi-Aventis, dated 2011):

Target: hRAGE (human, UniProt Q15109 23-342, limits assumed)
Test: competition ELISA, hRAGE-S100B interaction

Chain of hRAGE (Q15109 23-342 limits assumed): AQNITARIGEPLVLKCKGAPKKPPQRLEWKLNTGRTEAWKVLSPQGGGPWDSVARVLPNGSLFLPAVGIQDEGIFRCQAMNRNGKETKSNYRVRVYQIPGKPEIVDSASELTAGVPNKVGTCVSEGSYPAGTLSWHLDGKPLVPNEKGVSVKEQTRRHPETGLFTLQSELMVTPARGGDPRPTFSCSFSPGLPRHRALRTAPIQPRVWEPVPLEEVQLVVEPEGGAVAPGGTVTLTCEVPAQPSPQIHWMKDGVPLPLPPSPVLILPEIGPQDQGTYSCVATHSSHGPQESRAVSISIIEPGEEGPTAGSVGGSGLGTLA

B1: 158 RAGE-1 (antibody, V domains shown)
VH: QIQLVQSGPELKKPGETVKISCKASGYTFTDYSMHWVKQAPGKGLKWMGWINTETGEPTYADDFKGRFAFSLETSASTAYLLINNLKTEDTATYFCARDYLYYYAMDYWGQGTSVTVSS
VL: DVVLTQTPLSLPVNIGDQASISCKSTKSLLNSDGFTYLDWYLQKPGQSPQLLIYLVSNRFSGVPDRFSGSGSGTDFTLKISRVEAEDLGVYYCFQSNYLPLTFGGGTKVEIK
notes: Anti-RAGE monoclonal antibody (hybridoma; captured by anti-mouse Fc in Biacore); also called LP08105
IC50: 720 pM
